{
  "source": "patent US20120020975A1",
  "about": "(published 2012)",
  "binders": {"B1": {"name": "16F12, anti-PCSK9 huIgG4 (antibody, V domains shown)", "VH": "QVHLVESGGGVVQPGRSLRLSCAASGFTFNSFGMHWVRQAPGKGLEWVALIWSDGSDEYYADSVKGRFTISRDNSKNTLYLQMNSLRAEDTAVYYCARAIAALYYYYGMDVWGQGTTVTVSS", "VL": "QSVLTQPPSVSAAPGQKVTISCSGSSSNIGNNFVSWYQQLPGTAPKLLIYDYNKRPSGIPDRFSGSKSGTSATLGITGLQTGDEADYYCGTWDSSLSAYVFGTGTRVTVLQ", "notes": "also called 16F12.1"}},
  "biological_target": "T1, mouse PCSK9, mPCSK9-8xHIS (mouse, UniProt Q80W65 35-694, limits assumed)",
  "T1 construct": "also called His-tagged mouse PCSK9; biotinylated-mouse PCSK9",
  "assay": "KinExA solution equilibrium",
  "from_the_text": "Equilibrium dissociation constant (KD) were obtained from nonlinear regression of the two sets of competition curves using a one-site homogeneous binding model. The KinExA® Pro software was employed in the analysis.",
  "data": [
    {"binder": "B1", "values": [
      {"measurement": "fold lower affinity than to human and cyno PCSK9", "value": "10 to 250", "unit": "fold"}
    ]}
  ]
}
